Measurements: FireProtDB (doi:10.1006/jmbi.2000.3958)

B1: Cyclin-dependent kinases regulatory subunit, P08463 (parent)
chain: MSKSGVPRLLTASERERLEPFIDQIHYSPRYADDEYEYRHVMLPKAMLKAIPTDYFNPETGTLRILQEEEWRGLGITQSLGWEMYEVHVPEPHILLFKREKDYQMKFSQQRGG

Variants of: B1
Settings: Schizosaccharomyces pombe (strain 972 / ATCC 24843); pH 7.5; 25 °C; Urea; Fluorescence; Tris 50 mM; structure 1SCE; whole UniProt chain shown

P29A
ddG of mutation (higher = less stable): -0.23 kcal/mol | denaturant m value: 1.39 kcal/mol/M | denaturant midpoint (higher = more stable): 4.56 M

P7A
ddG of mutation (higher = less stable): 0.2 kcal/mol | denaturant m value: 1.57 kcal/mol/M | denaturant midpoint (higher = more stable): 4.29 M

P92A
ddG of mutation (higher = less stable): -0.07 kcal/mol | denaturant m value: 1.78 kcal/mol/M | denaturant midpoint (higher = more stable): 4.46 M

P92G
ddG of mutation (higher = less stable): -0.07 kcal/mol | denaturant m value: 1.55 kcal/mol/M | denaturant midpoint (higher = more stable): 4.46 M

P90A P92A
ddG of mutation (higher = less stable): -0.93 kcal/mol | denaturant m value: 1.4 kcal/mol/M | denaturant midpoint (higher = more stable): 5 M

P20A
ddG of mutation (higher = less stable): 0.3 kcal/mol | denaturant m value: 1.5 kcal/mol/M | denaturant midpoint (higher = more stable): 4.23 M

P90G
ddG of mutation (higher = less stable): -1.33 kcal/mol | denaturant m value: 1.53 kcal/mol/M | denaturant midpoint (higher = more stable): 5.25 M

P52A
ddG of mutation (higher = less stable): 2.57 kcal/mol | denaturant m value: 1.75 kcal/mol/M | denaturant midpoint (higher = more stable): 2.81 M

P90G P92G
ddG of mutation (higher = less stable): -0.88 kcal/mol | denaturant m value: 1.46 kcal/mol/M | denaturant midpoint (higher = more stable): 4.97 M

V89G
ddG of mutation (higher = less stable): -0.81 kcal/mol | denaturant m value: 1.63 kcal/mol/M | denaturant midpoint (higher = more stable): 4.93 M

V89A
ddG of mutation (higher = less stable): 0.24 kcal/mol | denaturant m value: 1.6 kcal/mol/M | denaturant midpoint (higher = more stable): 4.27 M

S28A
ddG of mutation (higher = less stable): 0.34 kcal/mol | denaturant m value: 1.61 kcal/mol/M | denaturant midpoint (higher = more stable): 4.21 M

S28G
ddG of mutation (higher = less stable): -0.89 kcal/mol | denaturant m value: 1.62 kcal/mol/M | denaturant midpoint (higher = more stable): 4.98 M

P44A
ddG of mutation (higher = less stable): 3.04 kcal/mol | denaturant m value: 1.56 kcal/mol/M | denaturant midpoint (higher = more stable): 2.52 M
